The record followed here is patent US20200362047A1 (CRESCENDO BIOLOGICS, published 2020).

The target of experiment [1] is T1, human PSMA expressed on cells (human, UniProt Q04609 1-750).
T1 construct: One molecule for both cell lines (CHO human PSMA, DU145 PSMA); the cell line stands under assay; also called CHO human PSMA; CHO PSMA
The experiment can be described thus: FMAT, DU145 PSMA cells. As to the method: (§1) Binding of His-tagged molecules to CHO human CD137, CHO parent, CHO human PSMA, DU145 PSMA and DU145 parent cells was assessed using Fluorescence Microvolume Assay Technology (FMAT). All reagents were prepared in FMAT assay buffer (pH 7.4) containing PBS, 0.1% Bovine Serum Albumin, 0.05% Sodium Azide. Serially diluted samples were transferred into 384 well black clear-bottomed assay plates (Costar cat. no. 3655) and incubated for a minimum of 2 hours at room temperature with 1.5 nM Anti-His (Millipore cat. no. 05-949), […] Goat Anti-Mouse Alexa Fluor-488 (Jackson ImmunoResearch cat. no. 115-545-071) and 2000 cells/well pre-stained with DRAQ5 (Thermo Scientific cat. no. 62251). Fluorescence emission was then measured on the TTP Mirrorball plate reader in the FL2 (502 nm-537 nm) and FL5 (677-800 nm) channels following excitation at 488 nm and 640 nm. Data was gated on FL5 perimeter and peak intensity and the FL2 median mean fluorescence intensity of the gated data used for determination of VH binding. Monovalent CD137 specific Humabody® VH, bispecific and trispecific molecules with a CD137 binding arm bound to CHO CD137 expressing cells. Monovalent PSMA specific Humabody® VH, bispecific and trispecific molecules with a PSMA binding arm bound to PSMA expressing cells.

Experiment [2] addresses T1, human PSMA expressed on cells. Nature of the experiment: FMAT, CHO human PSMA cells. The procedure:
as §1

Experiment [3] concerns the target T2, PSMA-his (R&D Systems cat no. 4234-ZN) (human, UniProt Q04609 44-750).
T2 construct: Bought protein; also called Human PSMA; not shown: His tag
The experiment can be described thus: BLI (Octet RED384), PSMA-his amine-coupled to AR2G sensors, 1:1 model. As to the method:
The kinetics of monovalent and bispecific Humabody VH were determined on a ForteBio Octet RED 384 instrument. To study the interaction with the antigens, CD137-Fc tag protein (Acro Biosystems cat no. 41B-H5258) or PSMA-his (R&D Systems cat no. 4234-ZN) was immobilised onto AR2G biosensors (ForteBio cat no. 18-5082) by amine coupling. Monovalent VH and bispecific molecules were serially diluted (typically 1:2 dilution series starting between 12-25 nM, at the highest concentration) in kinetics buffer (0.1% BSA, 0.02% Tween, 1×PBS) and binding to the immobilised proteins was studied during the association and dissociation phases. PSMA binding was measured using 180 seconds association and 600 seconds dissociation phases. CD137 binding was measured 180 seconds association and 600 seconds dissociation phases. Reference subtracted data were fitted to a 1:1 binding model using the ForteBio Octet Data Analysis software.

In experiment [4] the target is T3, human CD137 expressed on the surface of CHO cells (human, UniProt Q07011 24-255).
T3 construct: Also used for the Jurkat reporter cells that express human CD137 (functional rows); also called CHO human CD137 cells; CHO huCD137
Nature of the experiment: FMAT, CHO human CD137 cells. As to the method:
as §1

The target in experiment [5] is T4, human CD137-human Fc chimeric protein (Acro Biosystems cat no. 41B-H5258) (human, UniProt Q07011 24-186).
T4 construct: Bought protein; The Octet Protein G and Biacore experiments name no catalogue number; also called human CD137Fc recombinant protein; human CD137-Fc recombinant protein; not shown: human IgG1 Fc tag
The experiment can be described thus: HTRF binding assay. As to the method:
(§2) Binding to human CD137Fc recombinant protein (Acro Biosystems 41B-H5258), rhesus CD137Fc recombinant protein (Sino Biologicals cat no. 90847-K02H) and mouse CD137Fc protein (Acro Biosystems 41B-M5258) was measured using an HTRF Binding assay format. All reagents and serially diluted VH were prepared in assay buffer containing PBS, 0.1% BSA and 0.4M Potassium Fluoride. Samples or assay buffer (non-specific binding) were incubated with 0.5 nM human, rhesus or mouse CD137, 1 nM Anti human-Fc Cryptate PAb (Cisbio cat. no. 61HFCKLB) and 20 nM anti His-D2 (CisBio cat no 61HISDLA) in black 384-shallow well assay plates for a minimum of 3 hours at room temperature. Time-resolved fluorescent emission at 620 nm and 665 nm was measured following excitation at 337 nm on the BMG PHERAstar plate reader. The HTRF ratio were calculated ((665 nm emission/620 nm emission)*10000) and the data corrected for (non-specific binding) to give the specific binding signal. VH bound to human and rhesus CD137 but not to mouse CD137 protein.
On the technique in general: Time-resolved FRET reads energy transfer from a long-lived donor to a nearby acceptor.

Experiment [6] deals with T5, rhesus CD137Fc recombinant protein (Sino Biologicals cat no. 90847-K02H) (rhesus; human, UniProt H9Z8K9 24-186).
T5 construct: Bought protein; also called rhesus CD137-human IgG1 Fc tagged protein; not shown: human IgG1 Fc tag
T5 sequence: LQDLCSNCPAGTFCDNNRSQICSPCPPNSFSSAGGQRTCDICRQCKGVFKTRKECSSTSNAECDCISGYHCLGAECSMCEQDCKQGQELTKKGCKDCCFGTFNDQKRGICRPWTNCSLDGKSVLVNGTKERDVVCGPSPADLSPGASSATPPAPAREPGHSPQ
Nature of the experiment: HTRF binding assay. As to the method: as §2

Experiment [7] deals with T6, mouse CD137Fc protein (Acro Biosystems 41B-M5258) (mouse, UniProt P20334 24-187).
T6 construct: Bought protein; also called mouse CD137 protein; not shown: Fc tag, detected with anti human-Fc
T6 sequence (looked up): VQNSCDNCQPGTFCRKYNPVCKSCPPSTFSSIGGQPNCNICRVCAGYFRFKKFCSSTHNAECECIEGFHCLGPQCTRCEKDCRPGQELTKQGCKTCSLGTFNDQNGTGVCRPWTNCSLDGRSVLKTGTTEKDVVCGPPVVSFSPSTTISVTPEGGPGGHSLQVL
The experiment can be described thus: HTRF binding assay. The procedure:
as §2

Experiment [8] has as its target T7, human GITR-Fc (R&D Systems cat no. 689-GR) (human, UniProt Q9Y5U5 26-161).
T7 construct: Bought protein; also called GITR (Glucocorticoid-induced TNFR-related); not shown: Fc tag
T7 sequence (looked up): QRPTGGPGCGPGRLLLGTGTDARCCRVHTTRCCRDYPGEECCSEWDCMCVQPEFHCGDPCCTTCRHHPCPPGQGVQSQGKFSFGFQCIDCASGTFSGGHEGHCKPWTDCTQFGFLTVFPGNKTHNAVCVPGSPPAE
The experiment can be described thus: ELISA, coated GITR-Fc. As to the method:
(§3) Specificity of binding for CD137 over the tumour necrosis factor receptor family members OX40 and GITR (Glucocorticoid-induced TNFR-related) was determined using an ELISA assay. Nunc Maxisorp plates were coated with 1 ug/ml human CD137-Fc recombinant protein (Acro Biosystems 41B-H5258), human GITR-Fc (R&D Systems cat no. 689-GR) human OX40-Fc (R&D Systems cat no. 3388-OX) in sodium carbonate buffer overnight at 4° C. then washed twice with PBS. Non-specific protein interactions were blocked by incubation with 1% (w/v) skimmed milk powder (Marvel®) in PBS/0.1% Tween-20 for 1 hour at room temperature. Plates were washed twice with PBS then VH or antibody control (1 ug/ml) added for 1 hour at room temperature. Following three washes with PBS/0.1% Tween-20 a 1:1000 dilution of anti His-HRP (VH detection) or anti mouse-HRP (positive control mouse monoclonal antibody detection) was added in 1% Marvel/PBS/0.1% Tween-20. The detection antibodies were allowed to bind for 1 hour at room temperature then the plates were washed twice in PBS/0.1% Tween-20 and once in PBS. The ELISA was developed using TMB substrate and the reaction was stopped by the addition of 50 ul 0.5M H₂SO₄ solution. The absorbance at 450 nm was measured using the BMG Pherastar.

Experiment [9] has as its target T8, human OX40-Fc (R&D Systems cat no. 3388-OX) (human, UniProt P43489 29-216).
T8 construct: Bought protein; not shown: Fc tag
T8 sequence (looked up): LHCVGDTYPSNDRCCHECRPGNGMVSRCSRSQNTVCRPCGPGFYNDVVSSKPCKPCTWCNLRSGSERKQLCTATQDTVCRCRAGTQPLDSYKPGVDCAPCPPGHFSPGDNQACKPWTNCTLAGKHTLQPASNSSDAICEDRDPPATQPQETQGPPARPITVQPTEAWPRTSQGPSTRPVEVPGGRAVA
Nature of the experiment: ELISA, coated OX40-Fc. The procedure:
as §3
(In general: In an ELISA, binding on a coated surface is turned into a signal by an enzyme label.)

Experiment [10] concerns the target T9, CD137 on pre-stimulated human CD8+ T cells (human, UniProt Q07011 24-255).
T9 construct: also called pre-stimulated CD8+ cells; primary T cells
Nature of the experiment: flow cytometry, PMA/ionomycin-stimulated human CD8+ T cells, mean of 2-3 donors. As to the method: Binding to primary T cells was measured using flow cytometry. Peripheral blood mononuclear cells (PBMCs) were isolated from human blood by density gradient centrifugation then CD8+ T cells purified using a negative selection isolation kit according to the manufacturer's protocol (Miltenyi Biotech cat no 130-042-401). T-cells were stimulated PMA/Ionomycin for 48-72 hours in RPMI media supplemented with 10% FBS, 2 mM Glutamine, 1× Pen/Strep. Cells were transferred into 96 well plates, blocked for 10 mins with staining buffer (PBS/1% BSA/0.05% Sodium Azide) then incubated with serially diluted VH in staining buffer (PBS/1% BSA) for 30 mins-1 hour at 4° C. Cells were washed by centrifugation then VH binding detected using Anti His antibody (Millipore 05-949) and Goat Anti Mouse Alexa Fluor-488 (Jackson ImmunoResearch cat no. 115-545-071). A Live Dead near IR stain (Molecular Probes cat no. L10119) was used for discrimination of live cells. After further washing cells were fixed and fluorescence measured by flow cytometry.
(In general: In flow cytometry, cells or beads pass a laser one at a time.)

T1 sequence (Q04609 whole entry): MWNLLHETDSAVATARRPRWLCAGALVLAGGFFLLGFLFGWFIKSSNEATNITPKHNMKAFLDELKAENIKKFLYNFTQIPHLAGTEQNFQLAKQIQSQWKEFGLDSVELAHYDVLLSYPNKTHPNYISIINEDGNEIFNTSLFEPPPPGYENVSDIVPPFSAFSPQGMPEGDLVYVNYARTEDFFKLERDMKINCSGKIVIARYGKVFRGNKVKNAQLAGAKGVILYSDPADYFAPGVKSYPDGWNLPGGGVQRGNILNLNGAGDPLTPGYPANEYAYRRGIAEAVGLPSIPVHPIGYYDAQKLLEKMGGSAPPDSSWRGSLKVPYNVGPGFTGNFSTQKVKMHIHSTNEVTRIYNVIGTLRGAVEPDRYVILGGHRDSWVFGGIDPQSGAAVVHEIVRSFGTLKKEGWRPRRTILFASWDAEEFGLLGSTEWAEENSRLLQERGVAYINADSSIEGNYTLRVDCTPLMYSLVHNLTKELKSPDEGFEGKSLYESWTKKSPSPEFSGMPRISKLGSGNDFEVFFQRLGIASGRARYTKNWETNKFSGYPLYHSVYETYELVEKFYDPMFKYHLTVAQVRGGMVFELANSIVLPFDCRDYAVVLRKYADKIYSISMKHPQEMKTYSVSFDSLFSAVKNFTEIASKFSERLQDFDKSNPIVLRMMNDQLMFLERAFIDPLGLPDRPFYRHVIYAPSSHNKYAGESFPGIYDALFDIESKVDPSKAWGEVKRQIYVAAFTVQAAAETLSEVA
T2 sequence (Q04609 44-750 limits assumed): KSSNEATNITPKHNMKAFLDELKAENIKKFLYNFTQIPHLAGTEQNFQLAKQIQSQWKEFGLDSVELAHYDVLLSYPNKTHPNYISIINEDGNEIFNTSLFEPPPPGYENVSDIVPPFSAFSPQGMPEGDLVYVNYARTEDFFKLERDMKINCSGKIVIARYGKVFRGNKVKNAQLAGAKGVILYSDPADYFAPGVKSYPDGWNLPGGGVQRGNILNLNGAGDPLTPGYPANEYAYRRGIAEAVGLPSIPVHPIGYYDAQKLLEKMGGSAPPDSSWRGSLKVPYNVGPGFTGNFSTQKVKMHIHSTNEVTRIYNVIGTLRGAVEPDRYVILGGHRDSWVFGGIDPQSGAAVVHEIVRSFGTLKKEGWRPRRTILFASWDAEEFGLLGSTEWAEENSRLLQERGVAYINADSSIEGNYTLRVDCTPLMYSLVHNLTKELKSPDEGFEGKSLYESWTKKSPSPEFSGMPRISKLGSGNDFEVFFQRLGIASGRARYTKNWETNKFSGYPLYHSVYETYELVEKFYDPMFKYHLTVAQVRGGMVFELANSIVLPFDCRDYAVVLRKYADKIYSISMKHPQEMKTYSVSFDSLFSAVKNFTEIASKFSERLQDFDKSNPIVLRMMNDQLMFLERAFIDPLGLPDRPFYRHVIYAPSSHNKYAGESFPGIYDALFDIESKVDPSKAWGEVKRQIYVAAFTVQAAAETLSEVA
T3 sequence (Q07011 24-255 limits assumed): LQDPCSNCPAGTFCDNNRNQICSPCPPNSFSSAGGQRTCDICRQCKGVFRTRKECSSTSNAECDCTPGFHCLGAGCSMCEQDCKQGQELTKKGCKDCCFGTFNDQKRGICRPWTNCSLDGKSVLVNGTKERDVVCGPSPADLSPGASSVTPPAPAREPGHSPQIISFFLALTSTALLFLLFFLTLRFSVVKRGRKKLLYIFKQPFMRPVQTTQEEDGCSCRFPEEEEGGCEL
T9 sequence (Q07011 24-255 limits assumed): as above

B1: PSMA binding single VH domain antibody 4.1 (VHH)
VHH: EVQLVESGGGVVQPGRSLRLSCAASGFSFSGYGMHWVRQAPGKGLEWVAYISYDGSNKYYADSVKGRFTISRDNSKNTLYLQMNSLRAEDTAVYYCAKDPAWGLRLGESSSYDFDIWGQGTMVTVSS
notes: human single VH domain, PSMA specific
A word on the EC50: it is the midpoint of the concentration-response curve. As usually defined, the Kd is a measure of binding affinity in units of concentration. Higher therefore signals a looser complex. Usually koff stands for a measure of how fast the partners let go of each other. A higher koff goes with a short-lived complex. The term kon denotes the rate constant with which the complex forms. Consider B1, for which the response in experiment [1] was half-maximal at 190 pM (EC50). This molecule also had an EC50 in [2] of 170 pM. In addition, in experiment [3], the Kd stood at 530 pM, the koff came out at 0.00016 s⁻¹ and the kon turned out to be 310000 M⁻¹ s⁻¹.

B2: 4.1-6GS-1.1-6GS-VH (MSA) (bispecific antibody)
chain: EVQLVESGGGVVQPGRSLRLSCAASGFSFSGYGMHWVRQAPGKGLEWVAYISYDGSNKYYADSVKGRFTISRDNSKNTLYLQMNSLRAEDTAVYYCAKDPAWGLRLGESSSYDFDIWGQGTMVTVSSGGGGSGGGGSGGGGSGGGGSGGGGSGGGGSEVQLVESGGGLVQPGGSLRLSCAASGFTFSSHWMTWFRQAPGKGLEWVAHIKEDGSEKYYEDSVEGRFTVSRDNAKNSVYLQMNSLRAEDTAVYYCARGGDGYSDSHFGVDVWGQGTTVTVSSGGGGSGGGGSGGGGSGGGGSGGGGSGGGGSQVQLVESGGGLVQPGGSLRLSCAASGFTFSSYAMSWVRQAPGKGLEWVATISDSGSSADYADSVKGRFTISRDNSKNTLYLQMNSLRAEDTAVYYCARGRYNWNPRALGIWGQGTMVTVSS
notes: trispecific tandem VH (PSMA, CD137, mouse serum albumin); also called 4.1-6GS-1.1-VH (MSA); 4.1-6GS-1.1-6GS-MSA; not shown: His tag
Regarding B2, the EC50 in experiment [1] was determined as 360 pM; in [2], 320 pM; in [4], 580 pM.

B3: Humabody VH 2.2 (VHH)
VH: EVQLVESGGGLVKPGGSLRVSCAASGFTFSDYYMSWFRQAPGKGLEWVSYISGSGDIIDYADSVKGRFTISRDNAKNSLYLQMNSLRAEDTAVYHCAKEDSRIPGTTDFDNWGQGTLVTVSSHHHHHH
notes: human single VH domain
Regarding B3, the EC50 was 910 pM in [5], 560 pM in experiment [6], 180 pM in experiment [4] and 740 pM in experiment [10]. Further, the values for the binding result in [7], in [8] and in [9] were “no binding”, “no binding (tested: 1 ug/ml)” and “no binding (tested: 1 ug/ml)”, respectively.
